Experimental findings from paper PMC7660301, “Phe-140 Determines the Catalytic Efficiency of Arylacetonitrilase from Alcaligenes faecalis” (International Journal of Molecular Sciences, 2020) are described below.

T1 sequence (P20960 whole entry): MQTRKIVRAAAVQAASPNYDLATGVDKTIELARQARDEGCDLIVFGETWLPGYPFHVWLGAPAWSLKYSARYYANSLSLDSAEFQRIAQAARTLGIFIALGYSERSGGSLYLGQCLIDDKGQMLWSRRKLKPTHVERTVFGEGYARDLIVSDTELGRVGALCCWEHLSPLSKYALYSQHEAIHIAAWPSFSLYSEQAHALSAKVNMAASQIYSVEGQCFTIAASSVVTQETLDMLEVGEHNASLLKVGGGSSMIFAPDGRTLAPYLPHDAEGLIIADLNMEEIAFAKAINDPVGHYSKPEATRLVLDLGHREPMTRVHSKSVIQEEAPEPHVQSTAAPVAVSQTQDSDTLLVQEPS

One data set concerns the target T1, Arylacetonitrilase from Alcaligenes faecalis (NitAF) (Alcaligenes faecalis, UniProt P20960).
T1 construct: full-length with C-terminal His6 tag (tag kept), vector pTrc99A-derived, E. coli BL21(DE3), Ni-NTA; 1071 bp, 357 amino acids printed; subunit about 32 kDa by SDS-PAGE, native about 460 kDa (homo-oligomer)
Description: ammonia release, Michaelis-Menten. In kind it is biochemical. To be noted: 50 mM buffer pH 7.5, 10% methanol, 30 °C, 0.5-30 mM substrate. An excerpt:
(§1) ammonia release, Michaelis-Menten on Arylacetonitrilase from Alcaligenes faecalis (NitAF)
`N#CCc1ccccc1` [phenylacetonitrile]: the Km was found to be 860 ± 70 µM.

A further data set deals with N#CCc1ccccc1. Description: ammonia release, Michaelis-Menten. Type of data set: biochemical, Alcaligenes faecalis. To be noted: 50 mM buffer pH 7.5, 10% methanol, 30 °C, 0.5-30 mM substrate.
Excerpt: as §1
Take “Arylacetonitrilase from Alcaligenes faecalis (NitAF) (Alcaligenes faecalis; F140A)”: the Michaelis constant (Km) came out at 4200 ± 410 µM, the turnover number (kcat) worked out at 15.6 ± 1.2 s⁻¹ and the kcat/Km was determined as 3710 M⁻¹ s⁻¹.
Regarding “Arylacetonitrilase from Alcaligenes faecalis (NitAF) (Alcaligenes faecalis; F140G)”, the Km was 24100 ± 2200 µM.
For “Arylacetonitrilase from Alcaligenes faecalis (NitAF) (Alcaligenes faecalis; F140H)”, the Michaelis constant (Km) is 890 ± 100 µM, the kcat was found to be 63.5 ± 4.7 s⁻¹ and the kcat/Km was 71400 M⁻¹ s⁻¹.
In the same order, the values of “Arylacetonitrilase from Alcaligenes faecalis (NitAF) (Alcaligenes faecalis; F140L)” are 2130 ± 210 µM, 38.8 ± 3.8 s⁻¹ and 18200 M⁻¹ s⁻¹.
In the same order, the values of “Arylacetonitrilase from Alcaligenes faecalis (NitAF) (Alcaligenes faecalis; F140V)” are 2950 ± 320 µM, 25 ± 2.4 s⁻¹ and 8480 M⁻¹ s⁻¹.
Consider “Arylacetonitrilase from Alcaligenes faecalis (NitAF) (Alcaligenes faecalis; F140W)”, for which the Km was found to be 1450 ± 120 µM, the kcat came to 143 ± 12 s⁻¹ and the specificity constant (kcat/Km) was 98600 M⁻¹ s⁻¹.
